B1: Centrin2 (natural protein, human, UniProt P41208 1-172, looked up)
chain: MASNFKKANMASSSQRKRMSPKPELTEEQKQEIREAFDLFDADGTGTIDVKELKVAMRALGFEPKKEEIKKMISEIDKEGTGKMNFGDFLTVMTQKMSEKDTKEEILKAFKLFDDDETGKISFKNLKRVAKELGENLTDEELQEMIDEADRDGDGEVSEQEFLRIMKKTSLY
notes: Centrin2 (CETN2), human; amplified and cloned into pACEBac1; also called CETN2; CEN2; source: Sf21 insect cells (MultiBac baculovirus), co-expressed with POC5-TEV-2xFLAG, co-purified (anti-FLAG beads, SEC)
B2: POC5-HA-TEV-2xFLAG (wild type POC5 of the POC5-Centrin2 complex from insect cells) (natural protein, human, UniProt Q8NA72 1-575, looked up)
chain: MSSDEEKYSLPVVQNDSSRGSSVSSNLQEEYEELLHYAIVTPNIEPCASQSSHPKGELVPDVRISTIHDILHSQGNNSEVRETAIEVGKGCDFHISSHSKTDESSPVLSPRKPSHPVMDFFSSHLLADSSSPATNSSHTDAHEILVSDFLVSDENLQKMENVLDLWSSGLKTNIISELSKWRLNFIDWHRMEMRKEKEKHAAHLKQLCNQINELKELQKTFEISIGRKDEVISSLSHAIGKQKEKIELMRTFFHWRIGHVRARQDVYEGKLADQYYQRTLLKKVWKVWRSVVQKQWKDVVERACQARAEEVCIQISNDYEAKVAMLSGALENAKAEIQRMQHEKEHFEDSMKKAFMRGVCALNLEAMTIFQNRNDAGIDSTNNKKEEYGPGVQGKEHSAHLDPSAPPMPLPVTSPLLPSPPAAVGGASATAVPSAASMTSTRAASASSVHVPVSALGAGSAATAASEEMYVPRVVTSAQQKAGRTITARITGRCDFASKNRISSSLAIMGVSPPMSSVVVEKHHPVTVQTIPQATAAKYPRTIHPESSTSASRSLGTRSAHTQSLTSVHSIKVVD
notes: POC5, human; cDNA from SinoBiological; No TEV cleavage is described; also called POC5-TEV-2xFLAG; full-length POC5; not shown: 2xFLAG (after a TEV site), C-terminal, kept
B3: POC5^Δ153-184-TEV-2xFLAG (of the POC5^Δ153-184-Centrin2 complex from insect cells) (natural protein, human, UniProt Q8NA72 1-575, looked up)
chain: MSSDEEKYSLPVVQNDSSRGSSVSSNLQEEYEELLHYAIVTPNIEPCASQSSHPKGELVPDVRISTIHDILHSQGNNSEVRETAIEVGKGCDFHISSHSKTDESSPVLSPRKPSHPVMDFFSSHLLADSSSPATNSSHTDAHEILVSDFLVSFIDWHRMEMRKEKEKHAAHLKQLCNQINELKELQKTFEISIGRKDEVISSLSHAIGKQKEKIELMRTFFHWRIGHVRARQDVYEGKLADQYYQRTLLKKVWKVWRSVVQKQWKDVVERACQARAEEVCIQISNDYEAKVAMLSGALENAKAEIQRMQHEKEHFEDSMKKAFMRGVCALNLEAMTIFQNRNDAGIDSTNNKKEEYGPGVQGKEHSAHLDPSAPPMPLPVTSPLLPSPPAAVGGASATAVPSAASMTSTRAASASSVHVPVSALGAGSAATAASEEMYVPRVVTSAQQKAGRTITARITGRCDFASKNRISSSLAIMGVSPPMSSVVVEKHHPVTVQTIPQATAAKYPRTIHPESSTSASRSLGTRSAHTQSLTSVHSIKVVD
notes: made with deletion primers from the POC5-TEV-2xFLAG CEN2 construct; source: insect cells (MultiBac baculovirus), co-expressed with Centrin2, purified (anti-FLAG beads, 3xFLAG peptide elution, SEC); not shown: 2xFLAG (after a TEV site), C-terminal, kept

Legend:
[1] = target: B2; assay: mass photometry; purified POC5-Centrin2 complex (co-expressed in insect cells, FLAG affinity and SEC); 1 µl of 400 nM protein in 19 µl SEC buffer (50 mM Tris pH 7.5, 150 mM NaCl, 1 mM MgCl2); Refeyn TwoMP; conditions: both partners purified
[2] = target: the molecule itself; assay: as above
[3] = target: the molecule itself; assay: negative stain EM; purified POC5-Centrin2 complexes (co-expressed in insect cells, FLAG affinity and SEC); 3% uranyl acetate; 2D classification and low-resolution 3D reconstruction

B1
stoichiometry N [1]: ~6 Centrin2 molecules per POC5 tetramer

B2
stoichiometry N [2]: 4

B3
stoichiometry N [3]: 2

Source: article PMC11564547, “An interaction network of inner centriole proteins organised by POC1A-POC1B heterodimer crosslinks ensures centriolar integrity” (Nature Communications, 2024)
